Laboratory results reported in patent US20200392227A1 (LYVGEN BIOPHARMA, published 2020).
Read-outs that look alike come from different tables or passages of the source.

Columns and labels:
[1] = target: T1, human FcRIIIB protein (MednaBio, E1037) (human, UniProt O75015 17-200); assay: BLI
T1 construct: Bought; also called FcγRIIIB; FcgRIIIB
In short: (§1)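 On an Octet Red96 System, anti-penta-HIS biosensors loaded with commercial human Fc receptor proteins were dipped into test IgG diluted 1:3 over 8 points from 300 nM. Fcγ receptor runs used pH 7.2 and FcRn runs used pH 6. Global fitting of these biolayer interferometry data gave the values for Kd, kon and koff, using a 1:1 binding model.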

[2] = target: T2, human FcRI protein (MednaBio, E1031) (human, UniProt P12314 16-288, limits assumed); assay: BLI
T2 construct: Bought; loaded on anti-penta-HIS biosensors; also called FcγRI
T2 sequence (P12314 16-288 limits assumed): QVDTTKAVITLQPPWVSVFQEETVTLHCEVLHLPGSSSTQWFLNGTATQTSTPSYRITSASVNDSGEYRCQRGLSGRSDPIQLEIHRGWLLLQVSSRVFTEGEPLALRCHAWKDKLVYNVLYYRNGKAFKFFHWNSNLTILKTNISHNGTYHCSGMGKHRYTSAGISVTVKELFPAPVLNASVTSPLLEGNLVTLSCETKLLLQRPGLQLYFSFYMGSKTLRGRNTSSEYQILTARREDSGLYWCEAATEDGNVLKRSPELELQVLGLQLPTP
In short: as §1

[3] = target: T3, human FcRn protein (MednaBio, E1032) (human, UniProt P55899 24-297; P61769 21-119); assay: BLI
T3 construct: Bought; assays at pH 6
T3 sequence (P55899 24-297 limits assumed, form in doubt, chain 1 of 2): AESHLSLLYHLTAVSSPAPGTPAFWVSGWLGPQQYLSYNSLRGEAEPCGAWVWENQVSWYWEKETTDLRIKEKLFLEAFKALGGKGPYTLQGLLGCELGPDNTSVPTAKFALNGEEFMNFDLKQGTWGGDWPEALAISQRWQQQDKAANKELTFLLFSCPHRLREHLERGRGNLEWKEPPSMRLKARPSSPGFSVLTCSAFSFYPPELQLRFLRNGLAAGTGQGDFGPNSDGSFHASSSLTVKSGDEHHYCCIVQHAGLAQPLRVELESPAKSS
T3 sequence (P61769 21-119 limits assumed, form in doubt, chain 2 of 2): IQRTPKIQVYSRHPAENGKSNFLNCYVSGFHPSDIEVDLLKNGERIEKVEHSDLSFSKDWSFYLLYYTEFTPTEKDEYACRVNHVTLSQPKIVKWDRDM
In short: as §1

[4] = target: T4, human FcRIIB/C protein (MednaBio, E1034) (human, UniProt P31994 43-217, limits assumed); assay: BLI
T4 construct: Bought as FcRIIB/C; also called FcγRIIB; CD32B
T4 sequence (looked up): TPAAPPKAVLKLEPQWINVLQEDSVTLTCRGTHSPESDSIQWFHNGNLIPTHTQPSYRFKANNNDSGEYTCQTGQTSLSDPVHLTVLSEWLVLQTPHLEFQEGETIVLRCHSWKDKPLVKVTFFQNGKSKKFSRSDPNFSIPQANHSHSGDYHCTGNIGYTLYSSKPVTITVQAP
In short: as §1

[5] = target: T5, human FcRIIIA-F158 protein (MednaBio, E1036) (human, UniProt P08637 17-208); assay: BLI
T5 construct: Bought; also called FcγRIIIA(F)
T5 sequence (P08637 17-208 limits assumed): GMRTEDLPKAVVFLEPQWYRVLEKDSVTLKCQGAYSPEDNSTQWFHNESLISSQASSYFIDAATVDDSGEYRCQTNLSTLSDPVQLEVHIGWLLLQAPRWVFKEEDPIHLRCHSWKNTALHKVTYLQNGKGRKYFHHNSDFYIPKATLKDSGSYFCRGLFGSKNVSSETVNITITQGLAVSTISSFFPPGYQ
In short: as §1

[6] = target: T6, human FcRIIIA-V158 protein (MednaBio, E1035) (human, UniProt P08637 17-208); assay: BLI
T6 construct: Bought; also called FcγRIIIA(V); FcgRIIIA(V)
T6 sequence (P08637 17-208 F176V): as the sequence (P08637 17-208 limits assumed) above, with F160V counted along it
In short: as §1

[7] = target: T7, human FcRIIA protein (MednaBio, E1033) (human, UniProt P12318 34-218, limits assumed); assay: BLI
T7 construct: Bought; also called FcγRIIA
T7 sequence (looked up): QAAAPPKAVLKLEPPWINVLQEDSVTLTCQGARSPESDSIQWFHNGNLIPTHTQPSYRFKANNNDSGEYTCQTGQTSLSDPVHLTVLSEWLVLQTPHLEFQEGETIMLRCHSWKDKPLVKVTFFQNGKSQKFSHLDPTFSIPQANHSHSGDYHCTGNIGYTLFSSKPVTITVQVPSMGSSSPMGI
In short: as §1

[8] = target: T8, human FcγRIIC expressed on CHO cells (human, UniProt P31995 43-323); assay: FACS, CHO cells expressing FcγRIIC
T8 construct: whole, on cells
T8 sequence (looked up): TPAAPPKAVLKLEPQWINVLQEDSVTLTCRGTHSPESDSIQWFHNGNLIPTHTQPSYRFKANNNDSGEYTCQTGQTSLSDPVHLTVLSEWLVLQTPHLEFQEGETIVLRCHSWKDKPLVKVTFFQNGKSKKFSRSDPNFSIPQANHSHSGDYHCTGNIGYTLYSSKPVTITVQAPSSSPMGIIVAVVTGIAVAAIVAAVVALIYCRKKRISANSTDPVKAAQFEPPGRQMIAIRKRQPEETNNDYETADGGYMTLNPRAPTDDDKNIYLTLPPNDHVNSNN

[9] = target: T9, human FcγRIIA(R131) expressed on CHO cells (human, UniProt P12318 34-317); assay: FACS, CHO cells expressing FcγRIIA(R131)
T9 construct: whole, on cells
T9 sequence (looked up): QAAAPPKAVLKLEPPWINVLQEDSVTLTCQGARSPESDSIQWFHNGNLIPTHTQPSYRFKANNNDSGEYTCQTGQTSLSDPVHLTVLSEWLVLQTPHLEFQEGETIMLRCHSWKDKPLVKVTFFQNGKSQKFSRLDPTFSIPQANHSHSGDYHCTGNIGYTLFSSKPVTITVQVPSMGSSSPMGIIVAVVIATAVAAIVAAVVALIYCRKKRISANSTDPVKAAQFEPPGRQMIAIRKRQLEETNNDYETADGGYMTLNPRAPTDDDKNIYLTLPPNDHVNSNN
Protocol: (§2) For FACS analysis of the IgG mutants' binding to different FcγRs, FcγR overexpressing CHO cells were harvested using trypsin-EDTA and were suspended in cold staining buffer (3% BSA in PBS). Test IgG mutants, which were diluted in staining buffer, were added into the cells. The mixture was incubated 4° C. for 2 hours, and then washed twice with cold staining buffer and re-suspended in PE-labeled anti-human IgG followed by incubation at 4° C. for 2 hours. The mixture was washed twice with staining buffer and re-suspended in 2% PFA in PBS for FACS.

[10] = target: T10, human FcγRIIA(H131) expressed on CHO cells (human, UniProt P12318 34-317); assay: FACS, CHO cells expressing FcγRIIA(H131)
T10 construct: whole, on cells
T10 sequence (looked up): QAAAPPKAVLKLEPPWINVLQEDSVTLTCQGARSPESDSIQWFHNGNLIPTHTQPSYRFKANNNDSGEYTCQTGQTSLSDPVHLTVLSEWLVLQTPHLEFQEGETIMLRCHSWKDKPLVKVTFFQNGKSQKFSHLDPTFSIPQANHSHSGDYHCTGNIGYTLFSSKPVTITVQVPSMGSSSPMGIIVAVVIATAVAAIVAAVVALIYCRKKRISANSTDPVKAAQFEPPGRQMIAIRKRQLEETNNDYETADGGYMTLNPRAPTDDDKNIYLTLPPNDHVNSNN
Protocol: as §2

[11] = target: T11, human FcγRI expressed on CHO cells (human, UniProt P12314 16-374); assay: FACS, CHO cells expressing FcγRI
T11 construct: whole, on cells
T11 sequence (P12314 16-374): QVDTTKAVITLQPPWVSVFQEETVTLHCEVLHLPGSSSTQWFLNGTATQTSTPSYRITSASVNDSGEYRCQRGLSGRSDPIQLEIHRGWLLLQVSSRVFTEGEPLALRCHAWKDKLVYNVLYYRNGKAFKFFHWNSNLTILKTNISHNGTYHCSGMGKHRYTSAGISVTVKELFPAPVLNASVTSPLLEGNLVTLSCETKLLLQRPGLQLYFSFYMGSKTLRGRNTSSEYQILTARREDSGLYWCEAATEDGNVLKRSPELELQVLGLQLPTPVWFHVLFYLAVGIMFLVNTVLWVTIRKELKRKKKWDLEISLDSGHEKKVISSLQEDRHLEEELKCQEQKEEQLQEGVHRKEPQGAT
In short: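 Trypsin-harvested CHO cells overexpressing each FcγR were incubated 2 h at 4 °C with IgG mutants in 3% BSA/PBS. Bound IgG was detected with PE-labeled anti-human IgG (2 h, 4 °C), then cells were fixed in 2% PFA and analysed by flow cytometry.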

[12] = target: T1, human FcRIIIB protein (MednaBio, E1037); assay: BLI; remark: listed apart in the source
[13] = target: T2, human FcRI protein (MednaBio, E1031); assay: BLI; remark: listed apart in the source
[14] = target: T3, human FcRn protein (MednaBio, E1032); assay: BLI; remark: listed apart in the source
[15] = target: T4, human FcRIIB/C protein (MednaBio, E1034); assay: BLI; remark: listed apart in the source
[16] = target: T5, human FcRIIIA-F158 protein (MednaBio, …); assay: BLI; remark: listed apart in the source
[17] = target: T6, human FcRIIIA-V158 protein (MednaBio, …); assay: BLI; remark: listed apart in the source
[18] = target: T7, human FcRIIA protein (MednaBio, E1033); assay: BLI; remark: listed apart in the source

T1 sequence (O75015 17-200 limits assumed): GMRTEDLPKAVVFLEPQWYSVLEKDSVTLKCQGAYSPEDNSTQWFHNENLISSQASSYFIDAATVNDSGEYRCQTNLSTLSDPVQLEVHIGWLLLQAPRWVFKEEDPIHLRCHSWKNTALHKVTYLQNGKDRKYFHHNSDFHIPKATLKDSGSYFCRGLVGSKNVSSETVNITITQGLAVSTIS

B1: anti-CD137 IgG4 with Fc variant G4m9 (antibody)
heavy: EVQLVQSGAEVKKPGESLRISCKGSGYSFSTYWISWVRQMPGKGLEWMGKIYPGDSYTNYSPSFQGQVTISADKSISTAYLQWSSLKASDTAMYYCARGYGIFDYWGQGTLVTVSSASTKGPSVFPLAPCSRSTSESTAALGCLVKDYFPEPVTVSWNSGALTSGVHTFPAVLQSSGLYSLSSVVTVPSSSLGTKTYTCNVDHKPSNTKVDKRVESKYGPPCPPCPAPEFLGGPSVFLFPPKPKDTLMISRTPEVTCVVVDVEQEDPEVQFNWYVDGVEVHNAKTKPREEQFNSTYRVVSVLTVLHQDWLNGKEYKCKVSNKGFPSSIEKTISKAKGQPREPQVYTLPPSQEEMTKNQVSLTCLVKGFYPSDIAVEWESNGQPENNYKTTPPVLDSDGSFFLYSRLTVDKSRWQEGNVFSCSVMHEALHNHYTQKSLSLSLGK
light: SYELTQPPSVSVSPGQTASITCSGDNIGDQYAHWYQQKPGQSPVLVIYQDKNRPSGIPERFSGSNSGNTATLTISGTQAMDEADYYCATYTGFGSLAVFGGGTKLTVLGQPKAAPSVTLFPPSSEELQANKATLVCLISDFYPGAVTVAWKADSSPVKAGVETTTPSKQSNNKYAASSYLSLTPEQWKSHRSYSCQVTHEGSTVEKTVAPTECS
notes: copies: 2 + 2
binding result [1]: no binding (tested: 300 nM) | Kd [2]: 17 nM | koff [2]: 0.0074 s⁻¹ | kon [2]: 440000 M⁻¹ s⁻¹ | Kd [3]: 75 nM | koff [3]: 0.017 s⁻¹ | kon [3]: 230000 M⁻¹ s⁻¹ | Kd [4]: 140 nM | koff [4]: 0.013 s⁻¹ | kon [4]: 94000 M⁻¹ s⁻¹ | binding result [5]: no binding (tested: 300 nM) | binding result [6]: no binding (tested: 300 nM) | binding result [7]: no binding (tested: 300 nM) | binding result [8]: binds | binding result [9]: binds | binding result [10]: no binding (tested: 10 ug/ml)

B2: anti-CD137 IgG4 with Fc variant G4m2 (antibody)
heavy: EVQLVQSGAEVKKPGESLRISCKGSGYSFSTYWISWVRQMPGKGLEWMGKIYPGDSYTNYSPSFQGQVTISADKSISTAYLQWSSLKASDTAMYYCARGYGIFDYWGQGTLVTVSSASTKGPSVFPLAPCSRSTSESTAALGCLVKDYFPEPVTVSWNSGALTSGVHTFPAVLQSSGLYSLSSVVTVPSSSLGTKTYTCNVDHKPSNTKVDKRVESKYGPPCPPCPAPEFLGPSVFLFPPKPKDTLMISRTPEVTCVVVDVSQEDPEVQFNWYVDGVEVHNAKTKPREEQFNSTYRVVSVLTVLHQDWLNGKEYKCKVSNKGLPSSIEKTISKAKGQPREPQVYTLPPSQEEMTKNQVSLTCLVKGFYPSDIAVEWESNGQPENNYKTTPPVLDSDGSFFLYSRLTVDKSRWQEGNVFSCSVMHEALHNHYTQKSLSLSLGK
light: SYELTQPPSVSVSPGQTASITCSGDNIGDQYAHWYQQKPGQSPVLVIYQDKNRPSGIPERFSGSNSGNTATLTISGTQAMDEADYYCATYTGFGSLAVFGGGTKLTVLGQPKAAPSVTLFPPSSEELQANKATLVCLISDFYPGAVTVAWKADSSPVKAGVETTTPSKQSNNKYAASSYLSLTPEQWKSHRSYSCQVTHEGSTVEKTVAPTECS
notes: copies: 2 + 2
binding result [11]: no binding (tested: 10 ug/ml) | binding result [12]: no binding (tested: 300 nM) | binding result [13]: no binding (tested: 300 nM) | Kd [14]: 9.8 nM | koff [14]: 0.013 s⁻¹ | kon [14]: 1.4e+06 M⁻¹ s⁻¹ | Kd [15]: 150 nM | koff [15]: 0.046 s⁻¹ | kon [15]: 310000 M⁻¹ s⁻¹ | binding result [16]: no binding (tested: 300 nM) | binding result [17]: no binding (tested: 300 nM) | binding result [18]: no binding (tested: 300 nM) | binding result [9]: no binding (tested: 10 ug/ml) | binding result [10]: no binding (tested: 10 ug/ml)
